The values that follow come from paper PMC12521494.

For the experiment, the target named is NbNRC2 (Nicotiana benthamiana). In words: native gel or EMSA. (In general: In EMSA bound probe runs differently from free probe, usually more slowly.)

Where “and” joins values, the source holds several entries; their conditions need not be identical. Equal values may be shown once.

NbNRC2 (receptor): the stoichiometry N (commonly a count of units in the complex or per binding partner) is 2 and 4.
